Biological target: GPVI-Fc dimer (UniProt Q9HCN6)
Assay: ELISA

B1: nanobody 2 (Nb2) (VHH)
VHH: QVQLQESGGGLVQPGGSLRLSCAAAGFTFDYYAIAWFRQAPGKEREGVSCISSSDGTTYYADSVKGRFTISKDNAKNTMYLQMNSLKPEDTAVYYCATSPLYSTNDRCISEDYDYWGQGTQVTVSS
B1: binds.
